Substitutions are numbered along the chain they refer to. Blank lines part the entries; values can stand above or below the binder they belong to.
Assays:
[1] = biological target: T1, cynomolgus monkey FcγRIIa2 extracellular domain, His-tagged (cynomolgus monkey); experiment: SPR Biacore, KD(SG1)/KD(variant)
T1 construct: also called cyno FcγRIIa2; cynoFcgRIIa2; not shown: C-terminal His-tag
T1 chain: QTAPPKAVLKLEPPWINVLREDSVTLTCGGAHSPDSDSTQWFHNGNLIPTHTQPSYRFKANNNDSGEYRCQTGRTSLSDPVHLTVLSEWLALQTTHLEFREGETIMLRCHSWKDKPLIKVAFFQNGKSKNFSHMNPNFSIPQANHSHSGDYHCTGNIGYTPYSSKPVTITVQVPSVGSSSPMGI

[2] = biological target: T2, cynomolgus monkey FcγRIIa1 extracellular domain, His-tagged (cynomolgus monkey); experiment: SPR Biacore, antibody captured, FcgR analyte
T2 construct: also called cyno FcγRIIa1; cynoFcgRIIa1; not shown: C-terminal His-tag
T2 chain: T1 chain with T95P, A121T, K127I, S128A, N130K, N135D, Q142R

[3] = biological target: T2, cynomolgus monkey FcγRIIa1 …; experiment: SPR Biacore, KD(SG1)/KD(variant)
[4] = biological target: T1, cynomolgus monkey FcγRIIa2 …; experiment: SPR Biacore, antibody captured, FcgR analyte
[5] = biological target: T3, cynomolgus monkey FcγRIIa1 extracellular domain with C-terminal His-tag (cynomolgus monkey); experiment: SPR (BIACORE); KD of SG1 / KD of variant
T3 construct: also called cyno FcgRIIa1; cynoFcγRIIa1; not shown: His-tag added to the C-terminus
T3 chain: T1 chain with T95P, A121T, K127I, S128A, N130K, N135D, Q142R

[6] = biological target: T4, cynomolgus monkey FcγRIIIaS extracellular domain with C-terminal His-tag (cynomolgus monkey, UniProt A3RFZ7 21-206 (rhesus entry)); experiment: SPR (BIACORE); KD of SG1 / KD of variant
T4 construct: also called cyno FcgRIIIaS; cynoFcγRIIIaS; not shown: His-tag added to the C-terminus
T4 sequence (A3RFZ7 21-206): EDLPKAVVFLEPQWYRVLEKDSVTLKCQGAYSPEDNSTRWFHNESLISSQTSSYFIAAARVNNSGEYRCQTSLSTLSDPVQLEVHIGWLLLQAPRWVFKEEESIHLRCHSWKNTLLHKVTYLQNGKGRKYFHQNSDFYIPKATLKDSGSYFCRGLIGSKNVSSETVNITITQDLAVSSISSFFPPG

[7] = biological target: T3, cynomolgus monkey FcγRIIa1 …; experiment: SPR (BIACORE), antibody captured, FcgR analyte
[8] = biological target: T5, cynomolgus monkey FcγRIIa3 extracellular domain with C-terminal His-tag (cynomolgus monkey); experiment: SPR (BIACORE), antibody captured, FcgR analyte
T5 construct: also called cyno FcgRIIa3; cynoFcγRIIa3; not shown: His-tag added to the C-terminus
T5 chain: T1 chain with K127I, N130K, H133P, Q142R

[9] = biological target: T4, cynomolgus monkey FcγRIIIaS …; experiment: SPR (BIACORE), antibody captured, FcgR analyte
[10] = biological target: T6, cynomolgus monkey FcγRIIb extracellular domain, His-tagged (cynomolgus monkey); experiment: SPR Biacore, KD(SG1)/KD(variant)
T6 construct: also called cyno FcγRIIb; cynoFcγRIIb; not shown: C-terminal His-tag
T6 chain: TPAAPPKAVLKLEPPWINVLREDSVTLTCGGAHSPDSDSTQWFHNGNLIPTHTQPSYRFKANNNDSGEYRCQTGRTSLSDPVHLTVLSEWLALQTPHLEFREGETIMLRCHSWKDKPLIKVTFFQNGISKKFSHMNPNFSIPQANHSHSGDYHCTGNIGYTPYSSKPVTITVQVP

[11] = biological target: T5, cynomolgus monkey FcγRIIa3 …; experiment: SPR (BIACORE); KD of SG1 / KD of variant
[12] = biological target: T7, human FcγRIIaH extracellular domain with C-terminal His-tag (human, UniProt P12318 34-217); experiment: SPR (BIACORE); KD of SG1 / KD of variant
T7 construct: also called human FcgRIIaH; FcγRIIa type H; not shown: His-tag added to the C-terminus
T7 sequence: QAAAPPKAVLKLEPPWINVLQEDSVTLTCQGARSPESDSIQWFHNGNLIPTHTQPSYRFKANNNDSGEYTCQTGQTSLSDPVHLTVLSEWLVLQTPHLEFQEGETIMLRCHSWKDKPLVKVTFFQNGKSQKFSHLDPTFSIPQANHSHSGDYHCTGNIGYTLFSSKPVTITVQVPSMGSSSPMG

[13] = biological target: T7, human FcγRIIaH extracellular domain …; experiment: SPR (BIACORE), antibody captured, FcgR analyte
[14] = biological target: T8, cynomolgus monkey FcγRIIb extracellular domain with C-terminal His-tag (cynomolgus monkey); experiment: SPR (BIACORE); KD of SG1 / KD of variant
T8 construct: also called cyno FcgRIIb; cynoFcγRIIb; not shown: His-tag added to the C-terminus
T8 chain: T6 chain

[15] = biological target: T9, human FcγRIIaR extracellular domain, His-tagged (human, UniProt P12318 34-217); experiment: SPR Biacore, KD(SG1)/KD(variant)
T9 construct: also called human FcγRIIa (type R); FcgRIIaR; not shown: C-terminal His-tag
T9 chain: T7 sequence with H134R

[16] = biological target: T10, cynomolgus monkey FcγRIIa3 extracellular domain, His-tagged (cynomolgus monkey); experiment: SPR (BIACORE), antibody captured on chip, soluble FcgR as analyte, 25 C
T10 construct: also called cyno FcgRIIa3; cynoFcγRIIa3; not shown: His-tag added to the C-terminus
T10 chain: T1 chain with K127I, N130K, H133P, Q142R
Procedure: (§1) The kinetic analysis of interactions between these antibodies and FcγR was carried out using BIACORE® T200 or BIACORE® 4000 (GE Healthcare). HBS-EP+ (GE Healthcare) was used as the running buffer, and the measurement temperature was set to 25° C. […] After the measurement, the antibody captured on the chip was washed off by allowing reaction with 10 mM glycine-HCl, pH1.5 and 25 mM NaOH so that the chip was regenerated and used repeatedly. The sensorgrams obtained as measurement results were analyzed by the 1:1 Langmuir binding model using the BIACORE® Evaluation Software to calculate the binding rate constant ka (L/mol/s) and dissociation rate constant kd (1/s), and the dissociation constant KD (mol/L) was calculated from these values. […] Regarding such interactions, KD values were calculated using the following 1:1 binding model described in BIACORE® T100 Software Handbook BR1006-48 Edition AE.

[17] = biological target: T11, human FcγRIIb extracellular domain, His-tagged (human, UniProt P31994 43-217); experiment: as above
T11 construct: also called human FcgRIIb; not shown: His-tag added to the C-terminus
T11 sequence: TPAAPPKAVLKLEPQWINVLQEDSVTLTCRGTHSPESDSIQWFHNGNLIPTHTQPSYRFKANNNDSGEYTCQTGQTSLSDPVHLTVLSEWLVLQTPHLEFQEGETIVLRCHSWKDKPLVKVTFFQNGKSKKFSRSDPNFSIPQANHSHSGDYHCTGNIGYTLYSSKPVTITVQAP
Procedure: as §1

[18] = biological target: T12, cynomolgus monkey FcγRIIa2 extracellular domain with C-terminal His-tag (cynomolgus monkey); experiment: SPR (Biacore), KD of SG1 / KD of variant
T12 construct: also called cyno FcgRIIa2; cynoFcγRIIa2
T12 chain: T1 chain

[19] = biological target: T13, cynomolgus monkey FcγRIIa3 extracellular domain with C-terminal His-tag (cynomolgus monkey); experiment: SPR (Biacore), antibody captured, FcgR analyte
T13 construct: also called cyno FcgRIIa3; cynoFcγRIIa3
T13 chain: T1 chain with K127I, N130K, H133P, Q142R

B3: M103205H795-MY048/M103202L889-SK1 (antibody, human IgG1, kappa, name in EU numbering)
heavy: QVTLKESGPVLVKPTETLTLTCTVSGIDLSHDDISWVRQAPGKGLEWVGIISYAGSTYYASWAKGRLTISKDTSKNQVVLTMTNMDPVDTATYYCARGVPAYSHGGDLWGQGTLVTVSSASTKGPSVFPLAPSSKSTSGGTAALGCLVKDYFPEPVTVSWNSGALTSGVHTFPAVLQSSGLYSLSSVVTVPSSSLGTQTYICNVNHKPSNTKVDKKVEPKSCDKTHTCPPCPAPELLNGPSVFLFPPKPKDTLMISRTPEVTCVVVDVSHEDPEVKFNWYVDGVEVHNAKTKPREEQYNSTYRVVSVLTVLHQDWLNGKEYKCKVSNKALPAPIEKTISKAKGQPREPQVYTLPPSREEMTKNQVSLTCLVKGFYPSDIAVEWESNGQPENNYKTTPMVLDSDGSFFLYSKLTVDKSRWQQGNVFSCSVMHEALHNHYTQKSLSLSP
light: DIVMTQSPATLSLSPGERATLSCTSSQSVYHANWLSWFQQKPGQPPKLLIYWASTLAYGVPSRFSGSGSGTDFTLTISSLQPEDAATYYCAGGYGGGRYAFGQGTKVEIKRTVAAPSVFIFPPSDEQLKSGTASVVCLLNNFYPREAKVQWKVDNALQSGNSQESVTEQDSKDSTYSLSSTLTLSKADYEKHKVYACEVTHQGLSSPVTKSFNRGEC
notes: Fc variant of MS1032LO06-SG1; positions in EU numbering
KD fold (SG1 = 1) [5]: 2.5 fold
KD fold (SG1 = 1) [6]: 0.07 fold
Kd [7]: 1400 nM
Kd [8]: 7 µM
Kd [9]: 5.4 µM

B4: M103205H795-MY013/M103202L889-SK1 (antibody, human IgG1, kappa, name in EU numbering)
heavy: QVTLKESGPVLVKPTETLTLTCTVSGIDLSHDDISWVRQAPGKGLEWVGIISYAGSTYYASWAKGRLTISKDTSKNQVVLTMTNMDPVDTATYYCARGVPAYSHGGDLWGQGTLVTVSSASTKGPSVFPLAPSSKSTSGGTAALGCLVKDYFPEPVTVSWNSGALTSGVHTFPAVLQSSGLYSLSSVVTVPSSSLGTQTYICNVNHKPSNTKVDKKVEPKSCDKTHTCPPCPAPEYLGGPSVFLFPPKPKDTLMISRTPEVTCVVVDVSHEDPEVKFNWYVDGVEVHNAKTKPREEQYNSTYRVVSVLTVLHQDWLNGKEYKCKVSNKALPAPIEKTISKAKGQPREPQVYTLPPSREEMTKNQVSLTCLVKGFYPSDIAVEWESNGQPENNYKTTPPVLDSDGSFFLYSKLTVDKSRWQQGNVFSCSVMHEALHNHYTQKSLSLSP
light: B3 light
notes: Substitution introduced into M103205H795-SG1; EU numbering
KD fold (SG1 = 1) [10]: 0.5 fold

B8: M103205H795-MY073/M103202L889-SK1 (antibody, human IgG1, kappa, name in EU numbering)
heavy: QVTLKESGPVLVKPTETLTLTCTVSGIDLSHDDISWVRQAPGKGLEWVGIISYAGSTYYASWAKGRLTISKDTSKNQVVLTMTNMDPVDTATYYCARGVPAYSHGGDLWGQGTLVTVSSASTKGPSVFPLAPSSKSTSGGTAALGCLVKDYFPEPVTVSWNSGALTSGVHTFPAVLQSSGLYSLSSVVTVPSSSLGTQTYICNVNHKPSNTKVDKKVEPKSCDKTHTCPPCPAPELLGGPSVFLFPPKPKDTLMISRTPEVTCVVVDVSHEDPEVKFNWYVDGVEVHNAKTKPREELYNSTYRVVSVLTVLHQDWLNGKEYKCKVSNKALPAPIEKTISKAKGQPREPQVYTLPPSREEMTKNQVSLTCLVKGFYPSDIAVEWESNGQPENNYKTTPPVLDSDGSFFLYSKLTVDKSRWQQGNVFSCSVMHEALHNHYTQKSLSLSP
light: B3 light
notes: as for B4
KD fold (SG1 = 1) [1]: 3.9 fold

B11: M103205H795-MY050/M103202L889-SK1 (antibody, human IgG1, kappa, name in EU numbering)
heavy: QVTLKESGPVLVKPTETLTLTCTVSGIDLSHDDISWVRQAPGKGLEWVGIISYAGSTYYASWAKGRLTISKDTSKNQVVLTMTNMDPVDTATYYCARGVPAYSHGGDLWGQGTLVTVSSASTKGPSVFPLAPSSKSTSGGTAALGCLVKDYFPEPVTVSWNSGALTSGVHTFPAVLQSSGLYSLSSVVTVPSSSLGTQTYICNVNHKPSNTKVDKKVEPKSCDKTHTCPPCPAPELLNGPSVFLFPPKPKDTLMISRTPEVTCVVVDVAEEDPEVKFNWYVDGVEVHNAKTKPREEQYNSTYRVVSVLTVLHQDWLNGKEYKCKVSNKALPAPIEKTISKAKGQPREPQVYTLPPSREEMTKNQVSLTCLVKGFYPSDIAVEWESNGQPENNYKTTPPVLDSDGSFFLYSKLTVDKSRWQQGNVFSCSVMHEALHNHYTQKSLSLSP
light: B3 light
notes: as for B3
KD fold (SG1 = 1) [11]: 0.5 fold
KD fold (SG1 = 1) [14]: 1.3 fold
KD fold (SG1 = 1) [6]: 0.21 fold
KD fold (SG1 = 1) [12]: 0.3 fold
Kd [9]: 1.7 µM

B12: M103205H795-MY447/M103202L889-SK1 (antibody, human IgG1, kappa)
heavy: B11 heavy with P234I, N238T, A269S, E270D, A332K
light: B3 light
notes: Substitutions in EU numbering on SG1
KD fold (SG1 = 1) [18]: 5.6 fold
Kd [19]: 1500 nM

Continued, values first:

KD fold (SG1 = 1) [1]: 1.6 fold
Kd [2]: 2300 nM
B1: M103205H795-MY011/M103202L889-SK1 (antibody, human IgG1, kappa, name in EU numbering)
heavy: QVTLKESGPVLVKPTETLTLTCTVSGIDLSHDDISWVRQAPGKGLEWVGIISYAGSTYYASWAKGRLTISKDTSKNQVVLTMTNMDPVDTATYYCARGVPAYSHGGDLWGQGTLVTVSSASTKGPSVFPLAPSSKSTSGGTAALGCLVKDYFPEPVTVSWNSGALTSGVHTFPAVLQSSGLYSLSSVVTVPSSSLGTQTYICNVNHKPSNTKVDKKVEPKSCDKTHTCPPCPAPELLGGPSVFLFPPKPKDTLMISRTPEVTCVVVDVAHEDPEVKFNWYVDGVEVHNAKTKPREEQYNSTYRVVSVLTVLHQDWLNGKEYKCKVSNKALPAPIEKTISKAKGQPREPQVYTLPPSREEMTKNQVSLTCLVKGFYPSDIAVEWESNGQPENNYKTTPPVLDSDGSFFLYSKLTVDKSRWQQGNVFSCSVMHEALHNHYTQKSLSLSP
light: B3 light
notes: as for B4

KD fold (SG1 = 1) [3]: 1 fold
Kd [4]: 2.8 µM
B2: M103205H795-MY070/M103202L889-SK1 (antibody, human IgG1, kappa, name in EU numbering)
heavy: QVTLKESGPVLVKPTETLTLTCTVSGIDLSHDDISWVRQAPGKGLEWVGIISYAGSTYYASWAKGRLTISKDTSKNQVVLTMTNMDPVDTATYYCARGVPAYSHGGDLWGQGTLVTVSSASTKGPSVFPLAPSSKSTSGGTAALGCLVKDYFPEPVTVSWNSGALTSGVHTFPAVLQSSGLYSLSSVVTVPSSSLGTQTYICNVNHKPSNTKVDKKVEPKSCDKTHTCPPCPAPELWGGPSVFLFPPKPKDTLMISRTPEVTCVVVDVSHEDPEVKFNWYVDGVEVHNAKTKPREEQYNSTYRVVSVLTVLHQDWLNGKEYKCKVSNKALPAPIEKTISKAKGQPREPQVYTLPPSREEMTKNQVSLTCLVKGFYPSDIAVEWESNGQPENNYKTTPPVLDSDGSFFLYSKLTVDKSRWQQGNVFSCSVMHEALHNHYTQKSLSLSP
light: B3 light
notes: as for B4

KD fold (SG1 = 1) [5]: 2.5 fold
KD fold (SG1 = 1) [6]: 0.24 fold
Kd [9]: 1.5 µM
B5: M103205H795-MY052/M103202L889-SK1 (antibody, human IgG1, kappa, name in EU numbering)
heavy: B11 heavy with A269S, P398M
light: B3 light
notes: as for B3

KD fold (SG1 = 1) [11]: 0.5 fold
KD fold (SG1 = 1) [6]: 0.08 fold
KD fold (SG1 = 1) [12]: 0.6 fold
Kd [7]: 2200 nM
Kd [9]: 4.7 µM
Kd [13]: 1300 nM
B6: M103205H795-MY141/M103202L889-SK1 (antibody, human IgG1, kappa, name in EU numbering)
heavy: B11 heavy with E270H, P398M
light: B3 light
notes: as for B3

KD fold (SG1 = 1) [14]: 1.9 fold
KD fold (SG1 = 1) [6]: 0.07 fold
Kd [9]: 5.5 µM
B7: M103205H795-MY147/M103202L889-SK1 (antibody, human IgG1, kappa, name in EU numbering)
heavy: B11 heavy with L237W, A269S, P398M
light: B3 light
notes: as for B3

KD fold (SG1 = 1) [10]: 0.4 fold
KD fold (SG1 = 1) [15]: 0.8 fold
Kd [4]: 6.8 µM
B9: M103205H795-MY061/M103202L889-SK1 (antibody, human IgG1, kappa, name in EU numbering)
heavy: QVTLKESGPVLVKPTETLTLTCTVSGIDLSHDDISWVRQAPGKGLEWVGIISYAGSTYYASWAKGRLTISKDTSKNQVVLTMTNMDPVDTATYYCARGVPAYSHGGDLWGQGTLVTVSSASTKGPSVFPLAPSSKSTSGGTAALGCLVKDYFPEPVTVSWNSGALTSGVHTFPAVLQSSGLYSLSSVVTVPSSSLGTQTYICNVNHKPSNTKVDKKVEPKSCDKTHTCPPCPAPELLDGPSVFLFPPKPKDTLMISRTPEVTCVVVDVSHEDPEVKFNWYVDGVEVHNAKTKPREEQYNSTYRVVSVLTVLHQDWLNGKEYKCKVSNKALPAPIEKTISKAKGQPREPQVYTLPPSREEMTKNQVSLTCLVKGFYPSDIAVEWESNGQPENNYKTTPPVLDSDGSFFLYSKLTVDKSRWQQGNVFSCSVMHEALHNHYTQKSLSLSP
light: B3 light
notes: as for B4

Kd [16]: 43 µM
Kd [17]: 2700 nM
B10: M103205H795-MY265/M103202L889-SK1 (antibody, human IgG1, kappa, name in EU numbering)
heavy: B11 heavy with N238T, A269S, E270D, A332K
light: B3 light
notes: also called MS1032LO06-MY265

— patent US20250076311A1 (Chugai, published 2025)
